The source of these data is paper PMC12660843, “Using phage display for rational engineering of a higher-affinity humanized 3’ phosphohistidine-specific antibody” (Communications Chemistry, 2025).

*1 amine or outer side, *2 acyl side, *3 side chain or, on linkers, in order; H or OH if unused. Where no end group is shown, it is not given here. [ ]: non-standard residue; d: D form. The star is where a group is joined. 3‑pTza = 3-phosphotriazolyl alanine (also given as 3-phosphoryl-triazolylalanine); 3‑pHis = 3-phosphohistidine, O=C([C@H](Cc1cn(P(=O)(O)O)cn1)N[*:1])[*:2]; Biotin = O=C1N[C@H]2[C@H](CS[C@H]2CCCCC(=O)*)N1; Ahx = NCCCCCC(=O)O

The target of assay [1] is 3-pTza peptide (Biotin-AminocaproicAcid-A.G.A.G.3-pTza.A.G.A.G). Kind of assay: BLI; biotinylated peptide captured on streptavidin biosensors at 20 nM; IgG in solution at 20-200 nM; Octet HTX; 1x HBS-T, 1% BSA. Background: Biolayer interferometry detects binding as a change in optical thickness at a sensor tip.
The target is the same in assay [2]. Kind of assay: BLI; Octet RED96e; biotinylated peptides captured on streptavidin biosensors at 20 nM; Fab in solution, 20-200 nM; 1x HBS-T, 1% BSA.
Assay [3] deals with T1, 3-pHis peptide (Biotin-AminocaproicAcid-A.G.A.G.H.A.G.A.G phosphorylated by phosphoramidate).
T1 construct: His-peptide, phosphorylated on His5; the phosphoramidate reaction gives a mixture of non-phosphorylated, 1-pHis, 3-pHis and di-pHis peptide; also called Biotinylated ACLYana-3-pHis; ACLYana-pHis; source: synthetic peptide, phosphorylated with potassium phosphoramidate; not shown: biotin, N-terminal, kept
T1 peptide: {Biotin-Ahx}-AGAG[3‑pHis]AGAG
The description is as above.

Assay [4] addresses T2, 3-pTza peptide (Biotin-AminocaproicAcid-A.G.A.G.3-pTza.A.G.A.G).
T2 chain: {Biotin-Ahx}-AGAG[3‑pTza]AGAG
Kind of assay: BLI; biotinylated peptide captured on streptavidin biosensors at 20 nM; IgG in solution at 20-200 nM; Octet HTX; 1x HBS-T, 1% BSA. The following applies: both partners purified.

Assay [5] has as its target T1, 3-pHis peptide …. Described as above. The note with it: both partners purified.
Assay [6] deals with T3, 3-pHis form of the a-subunit of SCS (30 kDa) (Homo sapiens (HEK293T, endogenous), UniProt P53597, 3-phosphohistidine (site not stated)).
T3 construct: alpha subunit of SCS (succinyl-CoA synthetase), 30 kDa band on the immunoblot; source: endogenous, HEK293T lysate
Put plainly: immunoblot; HEK293T whole cell lysate, 30 µg, alkaline 12% SDS-PAGE and alkaline blotting at 4 °C; 0.5 µg/mL IgG as primary antibody, 1 h at room temperature; HRP secondary antibody. The following applies: one partner purified. For orientation: A western blot detects proteins with antibodies after separation by electrophoresis.

In assay [7] the target is T4, 3-pHis form of ACLY (120 kDa) (Homo sapiens (HEK293T, endogenous), UniProt P53396, 3-phosphohistidine (site not stated)).
T4 construct: ACLY (ATP-citrate lyase), 120 kDa band on the immunoblot; source: endogenous, HEK293T lysate
Described as above. The following applies: one partner purified.

T3 sequence (P53597 41-346): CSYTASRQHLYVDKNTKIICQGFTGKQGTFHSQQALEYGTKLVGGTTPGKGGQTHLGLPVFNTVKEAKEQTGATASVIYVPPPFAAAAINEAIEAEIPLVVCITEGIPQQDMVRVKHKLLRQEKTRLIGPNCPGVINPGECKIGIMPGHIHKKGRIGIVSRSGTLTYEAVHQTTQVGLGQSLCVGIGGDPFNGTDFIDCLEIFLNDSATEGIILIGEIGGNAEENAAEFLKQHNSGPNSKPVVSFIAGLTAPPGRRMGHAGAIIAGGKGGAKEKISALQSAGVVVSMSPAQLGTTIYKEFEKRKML
T4 sequence (P53396 whole entry): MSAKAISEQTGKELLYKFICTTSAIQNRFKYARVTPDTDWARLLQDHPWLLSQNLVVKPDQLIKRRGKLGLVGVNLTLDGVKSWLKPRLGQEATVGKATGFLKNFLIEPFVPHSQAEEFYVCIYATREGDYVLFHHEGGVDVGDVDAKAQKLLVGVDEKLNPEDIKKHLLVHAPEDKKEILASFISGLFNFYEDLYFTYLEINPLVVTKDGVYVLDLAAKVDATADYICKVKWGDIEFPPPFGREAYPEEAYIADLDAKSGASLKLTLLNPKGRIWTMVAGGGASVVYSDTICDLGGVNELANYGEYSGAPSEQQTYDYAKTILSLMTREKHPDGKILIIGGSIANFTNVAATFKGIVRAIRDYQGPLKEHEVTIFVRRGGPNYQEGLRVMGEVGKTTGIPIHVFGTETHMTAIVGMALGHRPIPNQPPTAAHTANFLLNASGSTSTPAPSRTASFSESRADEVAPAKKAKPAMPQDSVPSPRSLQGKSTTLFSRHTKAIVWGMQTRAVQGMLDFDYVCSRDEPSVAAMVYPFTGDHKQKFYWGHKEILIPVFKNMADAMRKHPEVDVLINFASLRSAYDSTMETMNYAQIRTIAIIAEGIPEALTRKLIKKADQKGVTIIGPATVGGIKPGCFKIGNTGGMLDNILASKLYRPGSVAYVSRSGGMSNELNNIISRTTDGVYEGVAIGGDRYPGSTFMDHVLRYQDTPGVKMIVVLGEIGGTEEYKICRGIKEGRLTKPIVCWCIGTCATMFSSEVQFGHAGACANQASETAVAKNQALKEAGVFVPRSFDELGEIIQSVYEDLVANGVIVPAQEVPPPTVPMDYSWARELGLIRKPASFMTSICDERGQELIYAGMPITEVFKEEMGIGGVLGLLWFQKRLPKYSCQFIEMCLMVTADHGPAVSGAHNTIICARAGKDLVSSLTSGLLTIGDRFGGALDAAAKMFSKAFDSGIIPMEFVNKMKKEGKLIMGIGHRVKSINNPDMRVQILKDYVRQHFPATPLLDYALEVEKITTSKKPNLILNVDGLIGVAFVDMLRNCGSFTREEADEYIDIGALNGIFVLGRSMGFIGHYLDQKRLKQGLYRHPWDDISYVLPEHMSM

B1: hSC44.1 IgG (antibody, V domains shown)
VH: EVQLVESGGGLVQPGGSLRLSCTASGFSIDSYGFSWVRQAPGKGLEHIGYLTAGGRAFYASWAKSRSTITRNTNENTVTLKMNSLRAEDTAVYYCAKLGTGSPIAIWGQGTLVTVSS
VL: DIQMTQSPSSLSASVGDRVTITCRASQSVWRNKNVAWYQQKPGKAPKRLIYAIASLYSGVPSRFSGSGSGTDFTLTISSLQPEDFATYYCVGHYGSENDAYYAFGQGTKVEIK
One may read the Kd as the concentration at which binding is half-saturated. A low value points to a tighter complex. Broadly, the koff is a measure of how fast the partners let go of each other. Read a low koff as slow dissociation. Broadly, the kon is a measure of how fast the partners come together. A lower kon goes with slow association. In assay [1], B1 showed an equilibrium dissociation constant (Kd) of 0.588 nM, a koff of 8.32e-05 s⁻¹ and a kon of 141000 M⁻¹ s⁻¹.

B2: hSC44.31 IgG (antibody, V domains shown)
VH: EVQLVESGGGLVQPGGSLRLSCTASGFSIDSYGFSWVRQAPGKGLEHIGYLTAGGRAFYASWAKSRSTITRNTNENTVTLKMNSLRAEDTAVYYCAKLGTGTPFAIWGQGTLVTVSS
VL: DIQMTQSPSSLSASVGDRVTITCRASQSVWRNKYVAWYQQKPGKAPKRLIYAIASLYSGVPSRFSGSGSGTDFTLTISSLQPEDFATYYCVGHYGSENDAYYAFGQGTKVEIK
For B2, in assay [1], the dissociation constant Kd stood at 2.71 nM, the koff was found to be 3.98e-05 s⁻¹ and the kon was found to be 14700 M⁻¹ s⁻¹.

B3: hSC44.20 Fab (Fab, V domains shown)
VH: EVQLVESGGGLVQPGGSLRLSCTASGFSIDSYGFSWVRQAPGKGLEHIGYLTAGGRAFYASWAKSRSTITRNTNENTVTLKMNSLRAEDTAVYYCAKLGTGSRFAIWGQGTLVTVSS
VL: DIQMTQSPSSLSASVGDRVTITCRASQSVWRNKNVAWYQQKPGKAPKRLIYAIASLYSGVPSRFSGSGSGTDFTLTISSLQPEDFATYYCVGHYGSENDAYYAFGQGTKVEIK
Regarding B3, in assay [2], the Kd came out at 0.421 nM, the koff came out at 0.000103 s⁻¹ and the association rate constant (kon) was 245000 M⁻¹ s⁻¹. For the same molecule, in assay [3], the Kd came to 17.5 nM, the koff was determined as 0.0042 s⁻¹ and the kon is 240000 M⁻¹ s⁻¹.

B4: hSC44.3 IgG (antibody, V domains shown)
VH: EVQLVESGGGLVQPGGSLRLSCTASGFSIDSYGFSWVRQAPGKGLEHIGYLTAGGRAFYASWAKSRSTITRNTNENTVTLKMNSLRAEDTAVYYCAKIGSGSPVAIWG
VL: DIQMTQSPSSLSASVGDRVTITCRASQSVWRNKNVAWYQQKPGKAPKRLIYAIASLYSGVPSRFSGSGSGTDFTLTISSLQPEDFATYYCVGHYGSENDAYYAFGQGTKVEIK
In assay [1], B4 returned an equilibrium dissociation constant (Kd) of 0.352 nM, an off-rate (koff) of 1.43e-05 s⁻¹ and a kon of 40700 M⁻¹ s⁻¹.

B5: hSC44.13 IgG (antibody, V domains shown)
VH: EVQLVESGGGLVQPGGSLRLSCTASGFSIDSYGFSWVRQAPGKGLEHIGYLTAGGRAFYASWAKSRSTITRNTNENTVTLKMNSLRAEDTAVYYCAKLGTGSPVAIWG
VL: DIQMTQSPSSLSASVGDRVTITCRASQSVWRNKNVAWYQQKPGKAPKRLIYAIASLYSGVPSRFSGSGSGTDFTLTISSLQPEDFATYYCVGHYGSENDAYYAFGQGTKVEIK
For the molecule B5, in assay [1], the Kd was 0.405 nM, the off-rate constant (koff) turned out to be 7.37e-05 s⁻¹ and the on-rate (kon) worked out at 182000 M⁻¹ s⁻¹.

B6: hSC44.20.N32F^L Fab (Fab, V domains shown)
VH: EVQLVESGGGLVQPGGSLRLSCTASGFSIDSYGFSWVRQAPGKGLEHIGYLTAGGRAFYASWAKSRSTITRNTNENTVTLKMNSLRAEDTAVYYCAKLGTGSRFAIWGQGTLVTVSS
VL: DIQMTQSPSSLSASVGDRVTITCRASQSVWRNKFVAWYQQKPGKAPKRLIYAIASLYSGVPSRFSGSGSGTDFTLTISSLQPEDFATYYCVGHYGSENDAYYAFGQGTKVEIK
As to B6, in assay [2], the dissociation constant Kd was 0.892 nM, the dissociation rate constant (koff) came out at 0.000177 s⁻¹ and the on-rate constant (kon) is 199000 M⁻¹ s⁻¹. In assay [3], this molecule registered a dissociation constant (Kd) of 6.63 nM, a dissociation rate constant (koff) of 0.000697 s⁻¹ and an on-rate (kon) of 105000 M⁻¹ s⁻¹.

B7: hSC44.20.N32Y^L Fab (Fab, V domains shown)
VH: EVQLVESGGGLVQPGGSLRLSCTASGFSIDSYGFSWVRQAPGKGLEHIGYLTAGGRAFYASWAKSRSTITRNTNENTVTLKMNSLRAEDTAVYYCAKLGTGSRFAIWGQGTLVTVSS
VL: DIQMTQSPSSLSASVGDRVTITCRASQSVWRNKYVAWYQQKPGKAPKRLIYAIASLYSGVPSRFSGSGSGTDFTLTISSLQPEDFATYYCVGHYGSENDAYYAFGQGTKVEIK
Consider B7, for which, in assay [2], the equilibrium dissociation constant (Kd) is 0.83 nM, the off-rate constant (koff) is 0.000186 s⁻¹ and the kon amounted to 224000 M⁻¹ s⁻¹. In addition, in assay [3], the Kd turned out to be 5.11 nM, the koff was found to be 0.00066 s⁻¹ and the kon was determined as 129000 M⁻¹ s⁻¹.

B8: hSC44.8 IgG (antibody, V domains shown)
VH: EVQLVESGGGLVQPGGSLRLSCTASGFSIDSYGFSWVRQAPGKGLEHIGYLTAGGRAFYASWAKSRSTITRNTNENTVTLKMNSLRAEDTAVYYCAKIGTGSRVAIWG
VL: DIQMTQSPSSLSASVGDRVTITCRASQSVWRNKNVAWYQQKPGKAPKRLIYAIASLYSGVPSRFSGSGSGTDFTLTISSLQPEDFATYYCVGHYGSENDAYYAFGQGTKVEIK
In assay [1], B8 had a Kd of 0.185 nM, a koff of 6.66e-05 s⁻¹ and an on-rate constant (kon) of 359000 M⁻¹ s⁻¹.

B9: hSC44.28 IgG (antibody, V domains shown)
VH: EVQLVESGGGLVQPGGSLRLSCTASGFSIDSYGFSWVRQAPGKGLEHIGYLTAGGRAFYASWAKSRSTITRNTNENTVTLKMNSLRAEDTAVYYCAKLGTGSPLAIWG
VL: DIQMTQSPSSLSASVGDRVTITCRASQSVWRNKFVAWYQQKPGKAPKRLIYAIASLYSGVPSRFSGSGSGTDFTLTISSLQPEDFATYYCVGHYGSENDAYYAFGQGTKVEIK
In assay [1], B9 registered a Kd of 1.21 nM, an off-rate constant (koff) of 3e-05 s⁻¹ and an association rate constant (kon) of 24900 M⁻¹ s⁻¹.

B10: hSC44.22 IgG (antibody, V domains shown)
VH: EVQLVESGGGLVQPGGSLRLSCTASGFSIDSYGFSWVRQAPGKGLEHIGYLTAGGRAFYASWAKSRSTITRNTNENTVTLKMNSLRAEDTAVYYCAKLGTGTPVAIWG
VL: DIQMTQSPSSLSASVGDRVTITCRASQSVWRNKNVAWYQQKPGKAPKRLIYAIASLYSGVPSRFSGSGSGTDFTLTISSLQPEDFATYYCVGHYGSENDAYYAFGQGTKVEIK
Turning to B10, in assay [1], the Kd was determined as 0.495 nM, the koff is 4.49e-05 s⁻¹ and the kon came out at 90600 M⁻¹ s⁻¹.

B11: hSC44.20.N32Y^L IgG (antibody, V domains shown)
VH: EVQLVESGGGLVQPGGSLRLSCTASGFSIDSYGFSWVRQAPGKGLEHIGYLTAGGRAFYASWAKSRSTITRNTNENTVTLKMNSLRAEDTAVYYCAKLGTGSRFAIWGQGTLVTVSS
VL: DIQLTQSPSSLSASVGDRVTITCRASQSVWRNKYVAWYQQKPGKAPKRLIYAIASLYSGVPSRFSGSGSGTDFTLTISSLQPEDFATYYCVGHYGSENDAYYAFGQGTKVEIK
notes: human IgG1, kappa light chain
In assay [4], B11 displayed a koff of less than 1e-07 s⁻¹ and an association rate constant (kon) of 35100 M⁻¹ s⁻¹. Further, in assay [5], the koff was 2.61e-05 s⁻¹ and the on-rate constant (kon) amounted to 8880 M⁻¹ s⁻¹.

B12: hSC44.20.N32F^L IgG (antibody, V domains shown)
VH: EVQLVESGGGLVQPGGSLRLSCTASGFSIDSYGFSWVRQAPGKGLEHIGYLTAGGRAFYASWAKSRSTITRNTNENTVTLKMNSLRAEDTAVYYCAKLGTGSRFAIWGQGTLVTVSS
VL: DIQLTQSPSSLSASVGDRVTITCRASQSVWRNKFVAWYQQKPGKAPKRLIYAIASLYSGVPSRFSGSGSGTDFTLTISSLQPEDFATYYCVGHYGSENDAYYAFGQGTKVEIK
notes: human IgG1, kappa light chain
In assay [4], B12 registered a Kd of 1.54 nM, an off-rate (koff) of 5.73e-05 s⁻¹ and a kon of 37300 M⁻¹ s⁻¹. In assay [5], this molecule registered an equilibrium dissociation constant (Kd) of 1.68 nM, a koff of 1.64e-05 s⁻¹ and an association rate constant (kon) of 13900 M⁻¹ s⁻¹.

B13: rSC44 Fab (Fab, V domains shown)
VH: QSVKESGRGLVQPGGSLTLTCTASGFSIDSYGFSWVRQAPGKGLEHIGYLTAGGRAFYASWAKSRSTITRNTNENTVTLKMTSLTAADTATYFCAKLGSGNPVAIWGPGTLVTVSS
VL: QVLTQTPSFTSAAVGGTVTINCQSSQSVWRNKNLAWYQQKPGQPPKRLIYAIATLDSGVPSRFSGSGSGTQFTLTISDVQCDDAATYYCVGHYGSENDAYYAFGGGTEVVVK
As for B13, in assay [2], the Kd was 0.668 nM, the koff was 0.000135 s⁻¹ and the on-rate constant (kon) amounted to 203000 M⁻¹ s⁻¹. In assay [3], this molecule gave a Kd of 48.5 nM, a koff of 0.00591 s⁻¹ and a kon of 122000 M⁻¹ s⁻¹.

B14: rSC44 IgG (antibody, V domains shown)
VH: QSVKESGRGLVQPGGSLTLTCTASGFSIDSYGFSWVRQAPGKGLEHIGYLTAGGRAFYASWAKSRSTITRNTNENTVTLKMTSLTAADTATYFCAKLGSGNPVAIWGPGTLVTVSS
VL: QVLTQTPSFTSAAVGGTVTINCQSSQSVWRNKNLAWYQQKPGQPPKRLIYAIATLDSGVPSRFSGSGSGTQFTLTISDVQCDDAATYYCVGHYGSENDAYYAFGGGTEVVVK
notes: rabbit SC44-8 IgG heavy chain; rabbit IgG constant region; as the light chain of m9; Rabbit IgG; also called SC44-8; rSC44-8; copies: 2 + 2
With B14, the binding result in assay [6] and in assay [7] was “binds” in each case.
